Source: the supplement of paper PMC12042874
± gives the uncertainty stated by the source.

Experiment: amyloid nucleation score (Sup35N fusion, yeast selection) (log enrichment); library NNK1; higher = more nucleation; inactive = no reads after selection
Method in brief: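 Nucleation score: DiMSum log enrichment of output over input reads, centred on the mode score of non-aggregating sequences. Only sequences with at least 100 input reads were kept. Reads came from Illumina sequencing of plasmid inserts before and after 7 days of growth at 30°C without adenine and uracil, in psi-negative yeast expressing Sup35N fused to peptides of 20 random codons after 24 hours of induction with 100 μM copper sulfate.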

Row | Substance | amyloid nucleation score
1 | IDMTEMKIRWV | -0.208 ± 0.27
2 | QRRHMCCVNAFFRDMRKGIG | 1.63 ± 0.43
3 | VSVNTVFH | 0.36 ± 0.44
4 | TSPDCKAAKSQGSKCRDRSC | -0.495 ± 0.62
5 | DYKHNPKWKMCKCLLAIRNY | 1.53 ± 0.51
6 | DGICNW | 2.61 ± 0.12
7 | MIWAEQCVMWPGACVMVIK | 4.64 ± 0.09
8 | HNCCDEVCGSNSGLFFRFMN | 0.979 ± 0.65
9 | LALGPLHSVLRGVINMGYGI | -0.88 ± 1.7
10 | AYGKRTNTRICDNKTLGVSS | -0.745 ± 2.4
11 | IGTGLLS | 0.451 ± 0.62
12 | PLVSTHALSAGILYCFKFYR | 5.57 ± 0.097
13 | YCVQFVRLMLKKNGRGYNYR | -0.762 ± 1.1
14 | HNYSDFFNESWHNGLIYSY | -0.571 ± 1
15 | LFESGSRDFLRQKLTFGTVP | 0.066 ± 0.7
16 | CDVLFGLLSLRYLPSSLRIG | -0.434 ± 0.48
17 | VHVLWLWQSMLLVHWSAV | 1.29 ± 0.93
18 | YVRMACMLGLHSRYWMHRVV | -0.267 ± 0.6
19 | GVQAVSSPTSVFK | 0.462 ± 0.85
20 | PIFLGLFDDRYMG | 0.116 ± 0.45
21 | GLFVREFPLDMIVVMVRSMC | -0.017 ± 0.97
22 | RLMSADFMQQEMMRGKVMAG | -0.351 ± 0.41

Row | Substance | amyloid nucleation score
23 | MLHWLKLIRTIGRFIRFFRC | inactive
24 | PNFWVRFKYGYLSSLNSRTV | -0.375 ± 0.52
25 | SWFTVRCDDC | inactive
26 | CSLLLMYIKNELMIRSFGRF | inactive
27 | LSWYPCWVARSTMALDGYGV | -0.776 ± 0.55
28 | KIFERRLSMYRSVSFLSRQC | 0.15 ± 0.32
29 | DGEAPKGSTGWTCGRVNERD | -0.125 ± 0.6
30 | GLTCSKAAIKRLG | -0.367 ± 0.54
31 | GSRLCRMSSSMIGSLRVIWG | -0.146 ± 0.25
32 | MWELRFVLCLMIHEFRRWHE | -0.056 ± 0.64
33 | TISYLS | 0.198 ± 0.39
34 | MWGTCSYSYLDSCRVTLFMR | 2.06 ± 0.2
35 | FLGLCS | -0.278 ± 0.4
36 | LMVNLYPY | 0.16 ± 0.4
37 | LGMSKLIMSNNVFNIFDSHP | 0.847 ± 0.9
38 | DVFRML | inactive
39 | GIRPNIANFSYKVHHPVLRG | inactive
40 | FGIPST | 1.05 ± 0.34
41 | LYYDSLYCHSFLWYGSLVLS | -0.06 ± 0.38
42 | WPNTPSVTKWTYLFVLHPRM | -0.854 ± 0.95
43 | APRYHAVFLLII | -0.505 ± 0.79
44 | QFVSLKFRVGLATS | 0.045 ± 0.95

Row | Substance | amyloid nucleation score
45 | DYGKSCRIALYGYYDRWCTG | 0.797 ± 0.48
46 | AQGVNSFCIEVFHCEGVMDP | -0.003 ± 0.38
47 | LHYCTCSIRSIF | 0.325 ± 0.6
48 | MTRVCL | -0.035 ± 0.62
49 | YCKFMLMGNHCFDLFCYSLN | 3.96 ± 0.09
50 | TRGVGYFIREIFGS | 0.241 ± 1.4
51 | LSPWSKTSIYCNLLPCIVSR | 0.571 ± 0.3
52 | FNRENGRNFALVVCLLDRFG | 1.41 ± 0.17
53 | MNKFNCRIMDDSDSALFSIA | 0.486 ± 0.4
54 | YSCMGECFTC | 7.89 ± 0.067
55 | NCACC | 6.12 ± 0.065
56 | TNISSTGFAIYWLCN | 7.16 ± 0.049
57 | LAYSNWALSCGIHIFRVTTS | 0.792 ± 0.27
58 | GVAWMFLCYVLAA | 0.575 ± 0.27
59 | NMLSLSRAAWKRN | inactive
60 | AFNKAVMSDTQL | -0.7 ± 0.6
61 | FWVDCSRVVRLKIQFNLV | 0.864 ± 0.42
62 | IINERSANLYDFVVIDRSWL | -1.04 ± 0.69
63 | YLNSFLYVMLFLVPDRSVTR | 6.18 ± 0.068
64 | TKSTLL | -0.296 ± 0.64
65 | HANCG | -0.155 ± 0.59
66 | STCHRSSSTCWKGYVRGLVV | 0.004 ± 0.18

Row | Substance | amyloid nucleation score
67 | RRSYDSLFVVVRRINTCSSP | -0.852 ± 1.1
68 | MRCGAL | 0.2 ± 1.2
69 | LPDNSIYRYLSY | 0.149 ± 0.42
70 | AYWSGTYEGEWYLVDRQFYW | 0.542 ± 1
71 | SVIYHRCLFLI | 6.906 ± 0.048
72 | TPRCLGERTISGISFYKV | -1.04 ± 0.55
73 | GVSVSYLDGGMAWPNEGGRK | 0.19 ± 0.62
74 | SSDGVSMLC | 0.33 ± 0.47
75 | DHFPARKVGCTILTCMMQKL | 0.697 ± 0.63
76 | TSWVEAPSVSSFGWFLSVHL | 1.91 ± 0.12
77 | FWREHTMR | inactive
78 | VLFLDI | 0.793 ± 0.58
79 | GVCWLKIRALPDSYWLVFL | -0.776 ± 0.74
80 | NYAQVLRTSFTNGVLTLKEE | -0.526 ± 0.86
81 | VWSAMDKALLDSGDGSPMG | 0.138 ± 0.36
82 | DRLWKSTWKGMTRLMRRSAE | -0.968 ± 0.48
83 | QTVGGRFSSFY | inactive
84 | VLGYSRPLSDTSSVGTIIPA | 0.172 ± 0.38
85 | PDMCQERNYCELYPCKARAT | -0.612 ± 0.41
86 | SIRMGSEVRSDNEMVMRWQM | 3.67 ± 0.16
